{"source": "paper PMC4017264", "about": "(Molecular Cell, 2014)", "parents": {"B1": {"name": "HOIP extended PUB domain (aa 1–184) [not stated] / FITC-Ahx-labeled OTULIN PIM peptide (aa 49–67) [modified: FITC-Ahx label; FITC-Ahx label] [not stated] (parent complex)", "chain 1": "MPGEEEERAFLVAREELASALRRDSGQAFSLEQLRPLLASSLPLAARYLQLDAARLVRCNAHGEPRNYLNTLSTALNILEKYGRNLLSPQRPRYWRGVKFNNPVFRSTVDAVQGGRDVLRLYGYTEEQPDGLSFPEGQEEPDEHQVATVTLEVLLLRTELSLLLQNTHPRQQALEQLLEDKVED", "chain 2": "AEHEEDMYRAADEIEKEKE"}}}
{"variants_of": "B1", "experiment": "fluorescence polarisation; triplicate", "units": {"Kd": "µM"}}
{"variant": "chain 1 V104A", "Kd": 2.03}
{"variants_of": "B1", "experiment": "fluorescence polarisation; triplicate", "remark": "another data set of the same source", "units": {"Kd": "µM"}}
{"variant": "chain 2 Y8W", "Kd": 21.3}
{"variant": "chain 2 Y8F", "Kd": 64.5}
{"variant": "chain 2 D6A", "Kd": 11.2}
